The Immune Epitope Database (IEDB)

The sequences below were run against HLA-A*02:01 (assay: IEDB peptide-MHC binding, purified MHC/competitive/radioactivity; ≥ and ≤ were set here for values at or beyond the usual limits of such assays). Conditions: source organism: Bordetella pertussis.

Sequence	IC50
FVWYVDTVI	0.802 µM
GIGALKAGA	69.4 µM
ILLENPAAE	18.7 µM
SLFAPHGNV	7.09 µM
VSSPPPVSV	49.5 µM

Each sequence was assayed against HLA-B*07:02 in the same assay as above. Conditions: source organism: Bordetella pertussis.

Sequence	IC50
QPLPPRPVA	8.37 µM

These sequences were tested against HLA-B*35:01 in the same assay as above. Conditions: source organism: Bordetella pertussis.

Sequence	IC50
EVAKVEVVP	69.9 µM
LPVSLTALD	7.12 µM
MDAKGGTLL	69.9 µM
VPASGAPAA	4.66 µM

Each sequence was assayed against HLA-B*44:03 in the same assay as above. Conditions: source organism: Bordetella pertussis.

Sequence	IC50
PELGAAIRV	6.51 µM
TRQGIMDQY	63.9 µM
TTEYPNARY	63.5 µM

These sequences were tested against HLA-B*53:01 in the same assay as above. Conditions: source organism: Bordetella pertussis.

Sequence	IC50
AIRVGRGAR	52.7 µM
AQQLKQADR	47.2 µM
FVWYVDTVI	30.2 µM
LPLKANPMH	≥ 78.2 µM
LPVSLTALD	23.1 µM
TFEGKPALE	46 µM
VVDGPPSRP	69.9 µM

The sequences below were run against HLA-B*57:01 in the same assay as above. Conditions: source organism: Bordetella pertussis.

Sequence	IC50
DNEGKMESN	≥ 70.4 µM
RGSAATFTL	10.7 µM
